From patent publication US10683329B2, “Dual-site BACE1 inhibitors” (priority 2014, dated 2020)
*1 amine or outer side, *2 acyl side, *3 side chain or, on linkers, in order; H or OH if unused. Where no end group is shown, it is not given here. [ ]: non-standard residue; d: D form. The star is where a group is joined. Chol‑27‑TFA‑ester = succinamic acid (3S,8S,9S,10R,13R,14S,17R)-17-[(1R,5R)-1,5-dimethyl-6-(2,2,2-trifluoro-acetoxy)-hexyl]-10,13-dimethyl-2,3,4,7,8,9,10,11,12,13,14,15,16,17-tetradecahydro-1H-cyclopenta[a]phenanthren-3-yl ester, C[C@H](CCC[C@@H](C)[C@H]1CC[C@H]2[C@@H]3CC=C4C[C@@H](OC(=O)CCC(=O)*)CC[C@]4(C)[C@H]3CC[C@]12C)COC(=O)C(F)(F)F; MetSta(3S,4S) = CSCC[C@H](N[*:1])[C@@H](O)CC(=O)[*:2]; Sta = CC(C)C[C@H](N)[C@@H](O)CC(=O)O; 27‑OH‑Chol = 27-hydroxycholesterol; PEG4 = NCCOCCOCCOCCOCCC(=O)O; Lauroyl = CCCCCCCCCCCC(=O)*; PEG3 = NCCOCCOCCOCCC(=O)O

The binders below were run against BACE1 enzyme (UniProt P56817 46-501, limits assumed) (assay: cell-based or functional assay).
Chain of BACE1 enzyme (P56817 46-501 limits assumed): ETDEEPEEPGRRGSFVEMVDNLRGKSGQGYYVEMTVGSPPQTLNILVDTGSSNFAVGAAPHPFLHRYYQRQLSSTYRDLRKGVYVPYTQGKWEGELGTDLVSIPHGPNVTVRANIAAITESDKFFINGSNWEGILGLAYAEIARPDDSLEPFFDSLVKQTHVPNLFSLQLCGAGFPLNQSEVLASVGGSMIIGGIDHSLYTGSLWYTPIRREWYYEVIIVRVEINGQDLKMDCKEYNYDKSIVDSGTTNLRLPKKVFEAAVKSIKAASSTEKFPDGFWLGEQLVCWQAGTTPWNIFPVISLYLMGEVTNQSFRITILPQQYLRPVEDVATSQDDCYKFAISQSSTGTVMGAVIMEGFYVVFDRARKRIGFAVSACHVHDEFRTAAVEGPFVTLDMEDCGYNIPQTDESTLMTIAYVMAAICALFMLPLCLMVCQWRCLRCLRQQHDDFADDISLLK
In the case of YPYFIPLGGGEVN[Sta]VAEFK(Chol)-NH2 (also: x TFA salt) [Tyr-Pro-Tyr-Phe-Ile-Pro-Leu-Gly-Gly-Gly-Glu-Val-Asn-Sta-Val-Ala-Glu-Phe-Lys(Chol)-NH2 x TFA], the “IC50, cellular Aβ-lowering assay (Aβ40 in supernatant of HEK293 cells expressing human APP695)” value (“IC50, cellular Aβ-lowering assay” for short) is reported as 0.19 nM. With YPYFKPL[PEG4]EVN[Sta]VAE[dP]K(Chol)-NH2 (numbers in words are those of the source; also: 2TFA salt) [Tyr-Pro-Tyr-Phe-Lys-Pro-Leu-PEG(4)-Glu-Val-Asn-Sta-Val-Ala-Glu-DPro-Lys(Chol)-NH2 x 2TFA] the “IC50, cellular Aβ-lowering assay” value was 0.0235 nM. In the case of YPYFKPLGGGEVN[Sta]VAE[dP]K(Chol)-NH2 (also: 2TFA salt) [Tyr-Pro-Tyr-Phe-Lys-Pro-Leu-Gly-Gly-Gly-Glu-Val-Asn-Sta-Val-Ala-Glu-DPro-Lys(Chol)-NH2 x 2TFA], the “IC50, cellular Aβ-lowering assay” value is reported as 0.00732 nM. With YPYFIPLGGGEVN[Sta]VAE[dP]K(Chol)-NH2 (also: x TFA salt) [Tyr-Pro-Tyr-Phe-Ile-Pro-Leu-Gly-Gly-Gly-Glu-Val-Asn-Sta-Val-Ala-Glu-DPro-Lys(Chol)-NH2 x TFA] the “IC50, cellular Aβ-lowering assay” value was 0.027 nM. YPYFIPLGGGEVN[Sta]VAE[dP]K(Lauroyl)-NH2 (also: x TFA salt) [Tyr-Pro-Tyr-Phe-Ile-Pro-Leu-Gly-Gly-Gly-Glu-Val-Asn-Sta-Val-Ala-Glu-DPro-Lys(C12)-NH2 x TFA] was tested, and the “IC50, cellular Aβ-lowering assay” value was 450 nM. In the case of YPYFIPLG[dK]GEVN[Sta]VAE[dP]K(Chol'ester')-NH2 (also: x 2TFA salt), the “IC50, cellular Aβ-lowering assay” value is reported as 0.025 nM. In the case of YPYFIPLGG[dK]EVN[Sta]VAE[dP]K(Chol)-NH2 (also: x 2TFA salt) [Tyr-Pro-Tyr-Phe-Ile-Pro-Leu-Gly-Gly-DLys-Glu-Val-Asn-Sta-Val-Ala-Glu-DPro-Lys(Chol)-NH2 x 2TFA], the “IC50, cellular Aβ-lowering assay” value is reported as 0.118 nM. In the case of YPYFIKLGGGEVN[Sta]VAE[dP]K(Chol)-NH2 (also: x 2TFA salt) [Tyr-Pro-Tyr-Phe-Ile-Lys-Leu-Gly-Gly-Gly-Glu-Val-Asn-Sta-Val-Ala-Glu-DPro-Lys(Chol)-NH2 x 2TFA], the “IC50, cellular Aβ-lowering assay” value is reported as 0.0117 nM. In the case of KPYFIPLG[dK]GEVN[Sta]VAE[dP]K(Chol'ester')-NH2 (also: x 3TFA salt), the “IC50, cellular Aβ-lowering assay” value is reported as 0.02 nM. With YPYFIPLGGGEVN[Sta]VAE[dP]K(27‑OH‑Chol)-NH2 (also: x TFA salt) [Tyr-Pro-Tyr-Phe-Ile-Pro-Leu-Gly-Gly-Gly-Glu-Val-Asn-Sta-Val-Ala-Glu-DPro-Lys(27-OH-Chol)-NH2 x TFA] the “IC50, cellular Aβ-lowering assay” value was 6.3 nM. For YPYFIPL[PEG4]EVN[MetSta(3S,4S)]VAE[dF]K(Chol)-NH2 (also: TFA salt) [Tyr-Pro-Tyr-Phe-Ile-Pro-Leu-PEG(4)-Glu-Val-Asn-MetSta-Val-Ala-Glu-DPhe-Lys(Chol)-NH2 x TFA], the “IC50, cellular Aβ-lowering assay” value was 0.018 nM. With YPYFIPL[PEG3]EVN[MetSta(3S,4S)]VAE[dF]K(Chol)-NH2 (also: TFA salt) [Tyr-Pro-Tyr-Phe-Ile-Pro-Leu-PEG(3)-Glu-Val-Asn-MetSta-Val-Ala-Glu-DPhe-Lys(Chol)-NH2 x TFA] the “IC50, cellular Aβ-lowering assay” value was 0.036 nM. With YPYFIPLGGGGEVNXVAEFK (MetSta at 15; DPhe at 19; Lys(Chol) at 20; C-terminal NH2) [Tyr-Pro-Tyr-Phe-Ile-Pro-Leu-Gly-Gly-Gly-Gly-Glu-Val-Asn-MetSta-Val-Ala-Glu-DPhe-Lys(Chol)-NH2 x TFA] the “IC50, cellular Aβ-lowering assay” value was 0.052 nM. For YPYFIPLGGGEVN[Sta]VAE[dP]K(Chol'ether')-NH2 (also: x TFA salt) [Tyr-Pro-Tyr-Phe-Ile-Pro-Leu-Gly-Gly-Gly-Glu-Val-Asn-Sta-Val-Ala-Glu-DPro-Lys(Chol'ether')-NH2 x TFA], the “IC50, cellular Aβ-lowering assay” value was 0.0264 nM. For YPKFIPLG[dK]GEVN[Sta]VAE[dP]K(Chol)-NH2 (also: x 3TFA salt) [Tyr-Pro-Lys-Phe-Ile-Pro-Leu-Gly-DLys-Gly-Glu-Val-Asn-Sta-Val-Ala-Glu-DPro-Lys(Chol)-NH2 x 3TFA], the “IC50, cellular Aβ-lowering assay” value was 0.0203 nM. In the case of YPYFIKLG[dK]GEVN[Sta]VAE[dP]K(Chol)-NH2 (also: x 3TFA salt) [Tyr-Pro-Tyr-Phe-Ile-Lys-Leu-Gly-DLys-Gly-Glu-Val-Asn-Sta-Val-Ala-Glu-DPro-Lys(Chol)-NH2 x 3TFA], the “IC50, cellular Aβ-lowering assay” value is reported as 0.0176 nM. In the case of YPKFIPLG[dK]GEVN[Sta]VAE[dP]K(Chol'ether')-NH2 (also: x 3TFA salt), the “IC50, cellular Aβ-lowering assay” value is reported as 0.00828 nM. In the case of YPYKIPLG[dK]GEVN[Sta]VAE[dP]K(Chol'ester')-NH2 (also: x 3TFA salt), the “IC50, cellular Aβ-lowering assay” value is reported as 2.3 nM. YPYFIPLGGGEVN[Sta]VAE[dP]K(Chol‑27‑TFA‑ester)-NH2 (also: x TFA salt) was tested, and the “IC50, cellular Aβ-lowering assay” value was 5.2 nM. YPYFIPL[PEG4]EVN[Sta]VAE[dP]K(Chol)-NH2 (also: TFA salt) [Tyr-Pro-Tyr-Phe-Ile-Pro-Leu-PEG(4)-Glu-Val-Asn-Sta-Val-Ala-Glu-DPro-Lys(Chol)-NH2 x TFA] was tested, and the “IC50, cellular Aβ-lowering assay” value was 0.027 nM. In the case of Ac-YPYFIPL[PEG4]EVN[Sta]VAE[dP]K(Chol)-NH2 [Ac-Tyr-Pro-Tyr-Phe-Ile-Pro-Leu-PEG(4)-Glu-Val-Asn-Sta-Val-Ala-Glu-DPro-Lys(Chol)-NH2], the “IC50, cellular Aβ-lowering assay” value is reported as 0.041 nM.
